Source: paper PMC5764400, “Biophysical insights from a single chain camelid antibody directed against the Disrupted-in-Schizophrenia 1 protein” (PLoS ONE, 2018)

B1: human DISC1 fragment comprising residues 691-836 (C region) (domain or fragment, UniProt Q9NRI5 691-836, looked up)
chain: WEADLEACRLLIQSLQLQEARGSLSVEDERQMDDLEGAAPPIPPRLHSEDKRKTPLKVLEEWKTHLIPSLHCAGGEQKEESYILSAELGEKCEDIGKKLLYLEDQLHTAIHSHDEDLIQSLRRELQMVKETLQAMILQLQPAKEAG
notes: also called DISC1 C region; source: E. coli BL21 AI (pESPRIT002), purified (Ni2+-NTA, SEC); not shown: His tag, N-terminal, kept

Experiments:
[1] = molecular target: T1, anti-DISC1 human Fc-VHH antibody (VHH B5 fused to human Fc) (Lama glama); experiment: far-Western, overlay or dot blot; western blot of purified His-tagged DISC1 truncation constructs probed with the VHH-Fc (conditioned medium) and an anti-human secondary antibody; details: one partner purified
T1 construct: as the VHH of m1; also called VHH-Fc; VHH–Fc antibody; not shown: Fc (human), C-terminal, kept

[2] = molecular target: T1, anti-DISC1 human Fc-VHH antibody (VHH …); experiment: far-Western, overlay or dot blot; western blot of lysates of NLF neuroblastoma cells transfected with human DISC1 or mouse Disc1, probed with the VHH-Fc (conditioned medium); details: partners not purified
[3] = molecular target: B1; experiment: SEC + SPR; stoichiometry of the DISC1^691-836 - VHH B5 complex as supported by the SEC and SPR results; details: both partners purified
[4] = molecular target: B1; experiment: SPR; Biacore T200, 25°C, PBS/0.05% Tween-20 pH 7.4; DISC1^691-836 amine-coupled to a CM5 chip (250 RU); VHH B5 19 nM to 1.5 uM injected in a single cycle; response levels against concentration fitted with Langmuir 1:1 model; details: both partners purified

Binder | binding result [1] | further results
human DISC1 fragment 480-721 (domain or fragment, UniProt Q9NRI5 480-721, looked up, Disrupted-in-Schizophrenia 1 (DISC1), human, UniProtKB Q9NRI5, residues 480-721; same vector as m3; also called DISC1^480-721; source: E. coli BL21 AI (pESPRIT002), purified (Ni2+-NTA, SEC)) EAKDQQLRREIEEQEQQLQWQGCDLTPLVGQLSLGQLQEVSKALQDTLASAGQIPFHAEPPETIRSLQERIKSLNLSLKEITTKVCMSEKFCSTLRKKVNDIETQLPALLEAKMHAISGNHFWTAKDLTEEIRSLTSEREGLEGLLSKLLVLSSRNVKKLGSVKEDYNRLRREVEHQETAYETSVKENTMKYMETLKNKLCSCKCPLLGKVWEADLEACRLLIQSLQLQEARGSLSVEDERQ | binds | 
B1 | binds | 
full length human DISC1 (natural protein, UniProt Q9NRI5 1-854, looked up, Disrupted-in-Schizophrenia 1 (DISC1), human, UniProtKB Q9NRI5; source: NLF human neuroblastoma cells, transfected, in lysate) MPGGGPQGAPAAAGGGGVSHRAGSRDCLPPAACFRRRRLARRPGYMRSSTGPGIGFLSPAVGTLFRFPGGVSGEESHHSESRARQCGLDSRGLLVRSPVSKSAAAPTVTSVRGTSAHFGIQLRGGTRLPDRLSWPCGPGSAGWQQEFAAMDSSETLDASWEAACSDGARRVRAAGSLPSAELSSNSCSPGCGPEVPPTPPGSHSAFTSSFSFIRLSLGSAGERGEAEGCPPSREAESHCQSPQEMGAKAASLDGPHEDPRCLSRPFSLLATRVSADLAQAARNSSRPERDMHSLPDMDPGSSSSLDPSLAGCGGDGSSGSGDAHSWDTLLRKWEPVLRDCLLRNRRQMEVISLRLKLQKLQEDAVENDDYDKAETLQQRLEDLEQEKISLHFQLPSRQPALSSFLGHLAAQVQAALRRGATQQASGDDTHTPLRMEPRLLEPTAQDSLHVSITRRDWLLQEKQQLQKEIEALQARMFVLEAKDQQLRREIEEQEQQLQWQGCDLTPLVGQLSLGQLQEVSKALQDTLASAGQIPFHAEPPETIRSLQERIKSLNLSLKEITTKVCMSEKFCSTLRKKVNDIETQLPALLEAKMHAISGNHFWTAKDLTEEIRSLTSEREGLEGLLSKLLVLSSRNVKKLGSVKEDYNRLRREVEHQETAYETSVKENTMKYMETLKNKLCSCKCPLLGKVWEADLEACRLLIQSLQLQEARGSLSVEDERQMDDLEGAAPPIPPRLHSEDKRKTPLKVLEEWKTHLIPSLHCAGGEQKEESYILSAELGEKCEDIGKKLLYLEDQLHTAIHSHDEDLIQSLRRELQMVKETLQAMILQLQPAKEAGEREAAASCMTAGVHEAQA |  | binding result [2]: binds
anti-DISC1 VHH B5 antibody (VHH, Selected by phage display from an immunised llama; the homology model holds residues 1-120; PDB 3EZJ chain B is only the template of the homology model, not this VHH; also called clone B5; VHH domain B5; source: E. coli BL21 Rosetta (pET-22b, periplasm), purified (Ni2+-NTA, SEC)) VHH: QVKLEESGGGLVQAGGSLRLSCAASGTLFSISVMGWYRQAPGMQRELVGSITDGGSTIYGDSVKGRFAISKDNAKRTIYLQMNSLKPEDTAVYYCNYRRLTSNYWGQGTQVTVSS |  | stoichiometry N [3]: 1; Kd [4]: 139 nM
human DISC1 fragment 598-715 (domain or fragment, UniProt Q9NRI5 598-715, looked up, same vector as m3; source: E. coli BL21 AI (pESPRIT002), purified (Ni2+-NTA, SEC)) GNHFWTAKDLTEEIRSLTSEREGLEGLLSKLLVLSSRNVKKLGSVKEDYNRLRREVEHQETAYETSVKENTMKYMETLKNKLCSCKCPLLGKVWEADLEACRLLIQSLQLQEARGSLS | binds | 
